Assay results from the DeepSol protein solubility set.

Experiment: soluble on expression in E. coli; label from the status in PepcDB or PDB records

Sequence | soluble on expression in E. coli
SAEKLFTPLKVGAVTAPNRVFMAPLTRLRSIEPGDIPTPLMGEYYRQRASAGLIISEATQISAQAKGYAGAPGLHSPEQIAAWKKITAGVHAEDGRIAVQLWHTGRISHSSIQPGGQAPVSASALNANTRTSLRDENGNAIRVDTTTPRALELDEIPGIVNDFRQAVANAREAGFDLVELHSAHGYLLHQFLSPSSNQRTDQYGGSVENRARLVLEVVDAVCNEWSADRIGIRVSPIGTFQNVDNGPNEEADALYLIEELAKRGIAYLHMSETDLAGGKPYSEAFRQKVRERFHGVIIGAGAYTAEKAEDLIGKGLIDAVAFGRDYIANPDLVARLQKKAELNPQRPESFYGGGAEGYTDYPSL | soluble
MRYLDAEAIENIATGAAFLGTGGGGDPYIGKMMALSAIEENGPVKLVSPEEIAAEDFFLPAAMMGAPSVAIEKFPKGDEFVRVFEKLGKYLDQETIAGTFPMEAGCVNSMIPIVVAAKLGIPLVDCDGMGRAFPELPMVTFHLNGMSATPMAITDEKGNIGIMETIDNTWTERLARVQTVEMGASALVSIYPATGKQLQDYGIHNIVTLSEEIGKVIRGTYADEQEKRQALVEVTDGFELFQGKILDVEREVKGGFNLGRVKLSGLNSDAGSEAVVHFQNENLIAEKDGQVIAMTPDLICMVDLETLTPVTTESLKYGKRVQVMGLKANAAWRTKKGIETVGPRYFGYEMDYQPLENLVAKEDKLEHHHHHH | soluble
AIAFRHTLSVDPSEQLSQDFADPVTDSGYESDEEAAAAATASLSGEEAALWNLVDPQQRLIFVLDGPAAQTLRVKRTGNLERQVVNIHRLPLERAPTVATSLLAATRPQHLVVALRTIEPHQAAAILTSTSYPSLSNVENASQVLVLANDLVQIDDPLLRPLWSDEGTQQNRIQLRWVETGCIGGITAALLAAGCWLRIPVLALLAVEDDDGPSPATLEALLLAAERFGCFTRADWEIRMPNLRQLLAKRQLLYI | soluble
MNQPIELSLEQQFSIRSFATQVQNMSHDQAKDFLVKLYEQMVVREATYQELLKHQWGLDSGSTPA | soluble
MKRMLVGCLAAALLFSSGWATAEAKGKQQSKPKWADKNKDGIPDDWELKYKLGLGKNVANQDKDRDGLTNRVEYNLRLNPTKTDTDKDKILDGDEDTDRDGLTNSAEVALGTKPEDADSDNDHVKDGAEKKGKAQLANVVQKLELQMKTAANQTIKIDYHWSDRHSHLHIKDQTGEVTTNDVQSLINDLQASPSLSNDEVIAKIQTLFSLDTPFRLELEWKYGSGRARKLSVKQDEDKGENAGQPGDDQDDDDQGHDQDGHDQNHDQDDDDYDGGNVGGDDGNSSE | not soluble
MEGFPVRVRVDVRFRDLDPLGHVNNAVFLSYMELARIRYFQRISPDWLEEGHFVVARMEVDYLRPILLGDEVFVGVRTVGLGRSSLRMEHLVTANGESAAKGLGVLVWLEGGRPAPLPEAIRERIRALEGRPL | soluble
MLLKGLYKVEFETPRRKAVGVIFASDGRLHGGSSAFAYIGAYEQQGQTIQGTITARRHTSDPAIQSVFGVDEVRVDFHGSTIGDYAQVEGMAAEAPSLGFKALLTRISQ | not soluble
MSLARQNRFDRTSFQTQIIDLSHDGRGVARPHGEGDKVTFVTGALPGEVVIVEPVARNRHFDEARVVEVLQASPQRVIPRCSHFGVCSGCVLQHLAEDAQVVSKQRVLLESLERIGRVSPERVLPALAAESWGYRRKGRFSVRWVEKKGRTLVGFREHDPRFVADVSVCHTVVPQVGEKIALLATLLNSLDGRRDVPQIEFIAGDAVVALTVRHLQPLSEADRLALIEFGKEHGIAIFLQSGGVESVRLLWPDEVLLAFRLKPWDVEFVFRPLDFIQINGGLNEKMIAHALDLLGAGFGERVLDLFCGLGNFTLPLARTVDEVVGVEGDIGLVERARENARRNGLGNAEFFVADLTRDQRDAPWMRQGFDKLLLDPPRSGAIEVLKQLPLKMFERIVYVSCHPGSLARDADFLVNEQGFVLRAVGAMDMFPHTAHVESIAVFDRCEGHHHHHH | soluble
MSLENCKKVNYERVEKERESGSSISIRNFKREAYDSSGQLQWELRANESFVYVNENKTTFYDIDFDQYEAGKFKSKLLAEKGEINHKTRLMLLEGKILLKTDDHKILTAKTMEYNMDTKKLVSDSEVSVSADGTTIRGIGLRADKDLNKFTILKPTAITQGGTNPLKAAGSPEGHHHHHH | soluble
MGSDKIHHHHHHMFRPKLLFTSLAALALGACSPQDPQAVTSAAIANQVILPTYSRWVEADRTLAASALAYCEGKESLDKARADFLNAQKAWAELQPLLVGPLAEGNRAWQVQFWPDKKNLVGRQVEQLVNGDKPVDAEALGKSSVVVRGLSAYEYILFDSKPDIATAEQKARYCPLLVAIGAHQKALAEEILKGWNSTDGMLSQMTKFPNQRYADSHEAIADLLRAQVTALDTLKKKLGAPMGRQSKGIPQPLQAEAWRSHNSMNSLQASLKAAEAVWVGVDNQGLRGLLPSDQKALADKIDAAYATSLKLLADNQKTLGELLADDAGQQTLNQIYDSLNVVHRLHEGDLAKALNIQLGFNANDGD | not soluble
MEIVYKPLDIRNEEQFASIKKLIDADLSEPYSIYVYRYFLNQWPELTYIAVDNKSGTPNIPIGCIVCKMDPHRNVRLRGYIGMLAVESTYRGHGIAKKLVEIAIDKMQREHCDEIMLETEVENSAALNLYEGMGFIRMKRMFRYYLNEGDAFKLILPLTEKSCTRSTFLMHGRLAT | not soluble
MSLKKAAIITIGSELLEGLILNKNAQFLCQELKNLGYRVVKVSTVGDDLISISEEVKTLLLKVDLLILTGGLGPTQDDLTRDAVAKVLNRSLKLNEELLSKIKEKIKKYHSEIPQNIERQALVIDGAEVLDNPVGSAPGQLLTVDGKIVILLPGPPRELIPMFNALKDRLRTPDALYQVVLKYYSIPEAVLEDLLKDILYSQNIVEVATMADHVEGVRLRLTTHMKNKEYLDEMVKKILDKTGEHLYGVNDEKMEEVVVRLLKDRKKTLAVAESCTGGMLSSLVVNVPGASEVFIGGVVAYSNDLKKHILGVREDTLKKHGAVSEECVQEMTEGLKKLTGADICVSISGIAGPSGGTPEKPVGTVFIDIFEHEHITMRYNFTGDRNMIRTRSAMMALENLRKYLKGRERVEGGSHHHHHH | soluble
MELLQGKTFVVMGVANQRSIAWGIARSLHNAGAKLIFTYAGERLERNVRELADTLEGQESLVLPCDVTNDEELTACFETIKQEVGTIHGVAHCIAFANRDDLKGEFVDTSRDGFLLAQNISAFSLTAVAREAKKVMTEGGNILTLTYLGGERVVKNYNVMGVAKASLEASVKYLANDLGQHGIRVNAISAGPIRTLSAKGVGDFNSILREIEERAPLRRTTTQEEVGDTAVFLFSDLARGVTGENIHVDSGYHILG | soluble
MPTNQDLQLAAHLRSQVTTLTRRLRREAQADPVQFSQLVVLGAIDRLGGDVTPSELAAAERMRSSNLAALLRELERGGLIVRHADPQDGRRTRVSLSSEGRRNLYGNRAKREEWLVRAMHACLDESERALLAAAGPLLTRLAQFEEP | soluble
MTAHFPFDNSYVALPPNFFARVAPTPVAAPRLIKLNRPLAVQLGLDPDLLETPEGAEILSGNQMPETAASIAMAYAGHQFGNFVPQLGDGRAILLGEVVDRNGVRRDIQLKGAGRTPFSRMGDGRAALGPVLREYIVSEAMAALGIPTTRSLAAVLTGETVLRDPIQPGAVLTRVASSHIRVGTFQYFAARGDLASVRALADHAIARHYPEAAQAPSPYLALLEGVIGRQAELVASWMMVGFIHGVMNTDNCSVAGETIDYGPCAFMDTFDPKTVYSSIDQFGRYAYGNQPPIALWNLTRLAECLVRLLADDDDKGIEIAQTALGGFAEQFNAAYLAKLAAKLGLFTSQPDDQQLSQEFLTALAKGEADFTLAFRRLSDAAVDPSDLGEVRALFADPAAFDEWAPRWRARIATEPQDATTRQAAMRRVNPAYIPRNHRIEAVIRAAVDRDDFAPFEEILTVLANPFEEKAEFARYAEPPQPHEQVLETFCGTAAALEHHHHHH | soluble
MVDGNYSVASNVMVPMRDGVRLAVDLYRPDADGPVPVLLVRNPYDKFDVFAWSTQSTNWLEFVRDGYAVVIQDTRGLFASEGEFVPHVDDEADAEDTLSWILEQAWCDGNVGMFGVSYLGVTQWQAAVSGVGGLKAIAPSMASADLYRAPWYGPGGALSVEALLGWSAKIGTGLITSRSDARPEDAADFVQLAAILNDVAGAASVTPLAEQPLLGRLIPWVIDQVVDHPDNDESWQSISLFERLGGLATPALITAGWYDGFVGESLRTFVAVKDNADARLVVGPWSHSNLTGRNADRKFGIAATYPIQEATTMHKAFFDRHLRGETDALAGVPKVRLFVMGIDEWRDETDWPLPDTAYTPFYLGGSGAANTSTGGGTLSTSISGTESADTYLYDPADPVPSLGGTLLFHNGDNGPADQRPIHDRDDVLCYSTEVLTDPVEVTGTVSARLFVSSSAVDTDFTAKLVDVFPDGRAIALCDGIVRMRYRETLVNPTLIEAGEIYEVAIDMLATSNVFLPGHRIMVQVSSSNFPKYDRNSNTGGVIAREQLEEMCTAVNRIHRGPEHPSHIVLPIIKRKLAAALEHHHHHH | soluble
MGSDKIHHHHHHMGLTLRQIEVIRAVMIAGTIAGAARLMNVAQPGVSRTMKHIESALGIKLFVKKAGRYVPTDEARDIFAQLQEVHRKVDDLQSSIGQLERGRGVELALGSVPSIANAMMPQAIAGLMRRYPDIRINFDILRIEEAIDYLLLGKGELVAMSYHLTHPSITFEPLSKGHLVCIAAREHPIAGRSRISAREIAEHPLIGIDPRDPYGAIMAGIFEREKLEYRTPIRARFGTTVCALVKRNLGIAVIDAFTVGGMADQGLAVIPISEDTEFQTYVAYRADAALSSYAERLVTTLRRVMDDSTGRSRGGRDA | not soluble
MRQIKVVLIGGGTGLSVMARGLREFPIDITAIVTVADNGGSTGKIRDEMDIPAPGDIRNVIAALSDSESVLSQLFQYRFEENQISGHSLGNLLIAGMTNITNDFGHAIKALSKILNIKGRVIPSTNTSVQLNAVMEDGEIVFGETNIPKKHKKIDRVFLEPNDVQPMEEAIDALREADLIVLGPGSLYTSVISNLCVNGISDALIHSDAPKLYVSNVMTQPGETDGYSVKDHIDAIHRQAGQPFIDYVICSTQTFNAQVLKKYEEKHSKPVEVNKAELEKESINVKTSSNLVEISENHLVRHNTKVLSTMIYDIALELISTIPFVPSDKRK | not soluble
MSLEDSKASLETRNFYMNRDFRDGPGQSKREEWAQGFILNLQSGYTQGTVGFGLDAMGMLGVKLDSGRGRSGTGLLPKDSDGRAPDTYSKLGLTAKVKVSQSELKVGTLIPKLPSVQPNNGRIFPQIFEGALLTSKEIKDLGFTAGRLEKTKIRDSSDSEDLALNDKNGRFAGVSADHFDLGGLDYKLTDQLTASYHYSNLQDVYRQHFVGLLHSWPIGPGELTSDLRFARSTDSGSAKAGGIDNKSLNGMFTYSLGNHAFGAAWQRMNGDDAFPYLEGSNPYLVNFVQVNDFAGPKERSWQLRYDYDFVGLGIPGLTFMTRYVKGDNVELAGQSGEGREWERNTELQYVFQSGALKNLGIRWRNATFRSNFTRDIDENRLIVSYTLPIWEGHHHHHH | soluble
MISLPAGSRIWLVAGITDMRNGFNGLASKVQNVLKDDPFSGHLFIFRGRRGDQIKVLWADSDGLCLFTKRLERGRFVWPVTRDGKVHLTPAQLSMLLEGINWKHPKRTERAGIRI | not soluble
MSKIEIFEAAGCCATSSVVVSDEAVKWNASAEWAKKHGVNIQRYSLAKNPQQFLNTPVIRAFLNTSGMESLPATLLDGQLVMAGKLPSREDIARWAG | soluble
MGSDKIHHHHHHMKCSQCNKKLCYTGKDCKKDITQKIIEEYKKEENLKIAEVSAYIEATYYMKKTRLEEIIEFCKLMEYKKIGIAFCIGLENEAKILAKILSKHFEVYSVCCKVCGIDKDVFKFKKINKGEKEAMCNPIGQAEILNEIGTDLNIIVGLCIGHDILFQKYSKAPTTTFIVKDRVLSHNTAGAIYTKYYLKKLLEGK | not soluble
